The text below walks through data of patent US5985822A, “Inhibition of glial cell proliferation with N-CAM homophilic peptides” (The Scripps Research Institute, priority 1995, dated 1999).

Where “and” joins values, the source holds several entries; their conditions need not be identical. Equal values may be shown once.

This experiment deals with rat forebrain astrocytes in primary culture. Nature of the experiment: Astrocyte proliferation assay ([3H]-thymidine incorporation normalized to [35S]-methionine). The experiment is classed as cell-based. Conditions: for inhibition of proliferation depending on cell density: 2 μg/ml N-CAM. Here is the method:
Primary cultures of astrocytes were prepared from the forebrains of 4-5 day old neonatal rats. After decapitation and removal of the forebrains from the skull, the meninges were carefully peeled off, and forebrain tissue was triturated in sterile phosphate buffered saline (PBS) using firepolished pipettes. The resulting suspension of tissue fragments was incubated in Hank's balanced salt solution (Gibco BRL) with 2.5 mg/ml trypsin, 1 mM EDTA and 0.1 mg/ml DNase (Boehringer) at 37° C. for 15 minutes. […] The pellet was resuspended in serum free medium (SFM) consisting of Dulbecco's Modified Eagle Medium (D-MEM), 2 mM L-glutamine, 50 U/ml penicillin G sodium and 50 μg/ml streptomycin sulfate (all from Gibco BRL) supplemented by 10% (vol/vol) fetal bovine serum (FBS). The cells were transferred to a standard 100 mm tissue culture dish (Falcon) and incubated at 37° C. for 1-2 hours. After mild shaking, the supernatant containing unattached cells was transferred to a 100 mm collagen-coated dish. […] Cell samples were checked regularly for the expression of GFAP, a marker for astrocytes.
After cell attachment, the culture medium was exchanged for SFM. In antisense experiments, oligonucleotides were added at the same time (T=0). […] After another 12 hours (at T=60), [^3 H]-thymidine (New England Nuclear, 20 Ci/mmol) was added (0.38 μM, 10 μCi/ml). Following an additional 12 hours (T=72), the wells were drained, counts precipitated by ice-cold […] trichloroacetic acid, and the plates left to dry. Counts were solubilized overnight by adding 100 μl 1 N KOH to each well, neutralized with 100 μl 1 N HCl, transferred to liquid scintillation vials and counted in 3 ml of Beckman Ready Safe liquid scintillation cocktail on a Packard 1600 TR counter. […] In this paper, proliferation is expressed as [^3 H]-thymidine incorporation normalized to [35]-methionine incorporation and calculated as [^3 H] dpm/ [35] dpm.
On the technique in general: Uptake of a labelled nucleoside into DNA is a usual measure of proliferation.

B1: N-CAM: neural cell adhesion molecule purified from early postnatal rat brains by affinity chromatography, mainly polysialylated embryonic form (protein, UniProt P13596 20-858, looked up)
Neural cell adhesion molecule …: LQVDIVPSQGEISVGESKFFLCQVAGDAKDKDISWFSPNGEKLSPNQQRISVVWNDDDSSTLTIYNANIDDAGIYKCVVTAEDGTQSEATVNVKIFQKLMFKNAPTPQEFKEGEDAVIVCDVVSSLPPTIIWKHKGRDVILKKDVRFIVLSNNYLQIRGIKKTDEGTYRCEGRILARGEINFKDIQVIVNVPPTVQARQSIVNATANLGQSVTLVCDADGFPEPTMSWTKDGEPIENEEEDDEKHIFSDDSSELTIRNVDKNDEAEYVCIAENKAGEQDASIHLKVFAKPKITYVENQTAMELEEQVTLTCEASGDPIPSITWRTSTRNISSEEKASWTRPEKQETLDGHMVVRSHARVSSLTLKSIQYTDAGEYICTASNTIGQDSQSMYLEVQYAPKLQGPVAVYTWEGNQVNITCEVFAYPSATISWFRDGQLLPSSNYSNIKIYNTPSASYLEVTPDSENDFGNYNCTAVNRIGQESLEFILVQADTPSSPSIDRVEPYSSTAQVQFDEPEATGGVPILKYKAEWKSLGEEAWHSKWYDAKEANMEGIVTIMGLKPETRYAVRLAALNGKGLGEISAATEFKTQPVREPSAPKLEGQMGEDGNSIKVNLIKQDDGGSPIRHYLVKYRALASEWKPEIRLPSGSDHVMLKSLDWNAEYEVYVVAENQQGKSKAAHFVFRTSAQPTAIPANGSPTAGLSTGAIVGILIVIFVLLLVVMDITCYFLNKCGLLMCIAVNLCGKAGPGAKGKDMEEGKAAFSKDESKEPIVEVRTEEERTPNHDGGKHTEPNETTPLTEPEKGPVETKSEPQESEAKPAPTEVKTVPNEATQTKENESKA
modifications: polysialylated embryonic form
Turning to B1, the “inhibition of proliferation depending on cell density” value (higher cell density 28×10^4 cells/cm^2, confluent) is “virtually ineffective” and the “inhibition of proliferation depending on cell density” value (lower cell density 1.8×10^4 cells/cm^2) was “Inhibition was maximal”. Also, under “N-CAM 2 μg/ml, parallel control of each drug experiment (Table 5)”, the “N-CAM Alone” value was 32.5 % of SFM Control and 34 % of SFM Control. Further, the “maximal suppression of proliferation” value (N-CAM 10 μg/ml in SFM, 7×10^4 cells/cm^2, three preparations) is > 90%. The “effect on astrocyte proliferation (in words)” value (added to astrocyte cultures in SFM) was “inhibited their proliferation in a concentration dependent manner”. Besides, the “suppressive effect of N-CAM added together with growth stimulus” value (with 1% FBS or 20 ng/ml bFGF) was “suppressive effect similar in magnitude to that observed in SFM”.
